Results reported in paper PMC4393304, “Cloning and Characterization of Three Eimeria tenella Lipid Phosphate Phosphatases” (PLoS ONE, 2015).

Key:
EtLPP1 = biological target: T1, EtLPP1 (Eimeria tenella, UniProt A0A0A7H6F4); experiment: PiPer phosphate-release fluorescence assay; type: biochemical; conditions: pH 6.5, 37°C, Triton X-100 mixed micelles, 1 mg/ml fatty-acid free BSA, Mg2+-independent
T1 construct: full-length, 347 residues, calculated Mr 38239; His6-tagged (pcDNA3.1/His), transient in HEK293 cells, membrane fraction, Ni-NTA purified; bands 40 and 42 kDa, monomer
T1 sequence (A0A0A7H6F4 1-346): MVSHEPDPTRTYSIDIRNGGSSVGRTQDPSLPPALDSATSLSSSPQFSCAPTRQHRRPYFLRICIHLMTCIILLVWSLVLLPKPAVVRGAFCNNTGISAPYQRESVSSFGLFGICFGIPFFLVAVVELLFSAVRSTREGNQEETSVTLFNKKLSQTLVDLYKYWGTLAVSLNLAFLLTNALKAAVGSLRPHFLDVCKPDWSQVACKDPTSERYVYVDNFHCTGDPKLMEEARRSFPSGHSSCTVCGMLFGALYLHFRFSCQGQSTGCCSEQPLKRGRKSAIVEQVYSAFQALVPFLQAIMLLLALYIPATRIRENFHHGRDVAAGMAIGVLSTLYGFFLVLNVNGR
Text: (§1) PiPer phosphate-release fluorescence assay on EtLPP1

[1] = substrate: CCCCCCCCCCCCC/C=C/[C@@H](O)[C@@H](N)COP(=O)(O)O; experiment: PiPer phosphate-release fluorescence assay; type: biochemical, Eimeria tenella; conditions: pH 6.5, 37°C, Triton X-100 mixed micelles, 1 mg/ml fatty-acid free BSA, Mg2+-independent
Text: as §1

## LPA
EtLPP1
  Km: 46 ± 9 µM

B1: EtLPP1 (Eimeria tenella) (protein)
chain: MVSHEPDPTRTYSIDIRNGGSSVGRTQDPSLPPALDSATSLSSSPQFSCAPTRQHRRPYFLRICIHLMTCIILLVWSLVLLPKPAVVRGAFCNNTGISAPYQRESVSSFGLFGICFGIPFFLVAVVELLFSAVRSTREGNQEETSVTLFNKKLSQTLVDLYKYWGTLAVSLNLAFLLTNALKAAVGSLRPHFLDVCKPDWSQVACKDPTSERYVYVDNFHCTGDPKLMEEARRSFPSGHSSCTVCGMLFGALYLHFRFSCQGQSTGCCSEQPLKRGRKSAIVEQVYSAFQALVPFLQAIMLLLALYIPATRIRENFHHGRDVAAGMAIGVLSTLYGFFLVLNVNGR
notes: full-length, 347 residues, calculated Mr 38239; His6-tagged (pcDNA3.1/His), transient in HEK293 cells, membrane fraction, Ni-NTA purified; bands 40 and 42 kDa, monomer
[1]
  Km: 22 ± 6 µM
  Vmax: 0.00015 µmol/min/mg
